For 1 substance, phosphoacceptor activity and phosphorylation assays results are on record in patent US20020142429.

Series [1] deals with T1, amidated 16'mer peptide RKKFGESEKTKTKEFL
T1 sequence: RKKFGESEKTKTKEFL

For series [2], the system named is peptides centered around the phosphorylation site of eEF-2.

On to “recombinant eEF-2 kinase (as used in the peptide phosphorylation assay)”, for which, in series [1], the phosphoacceptor activity entry is recorded as “amidation of the peptide further stabilizes the α-helical structure, resulting in stronger phosphoacceptor activity”. Besides, the phosphorylation assays entry in series [2] was “This strategy did not yield a peptide that was functional in phosphorylation assays (data not shown)”.
